From paper PMC11239949

What was measured:
[1] = biological target: Mucin 1 (MUC1) on MCF-7 cells; aptamer designed against the VNTR region (UniProt P15941); assay: whole-cell capture on magnetic beads (fluorescence); conditions: multivalent (apparent), 5x10^4 DAPI-stained MCF-7 cells added to 500 uL A-f-M13-MB (resuspended in PBS), 30 min, 37 C, one-site fit over aptamer concentration
[2] = biological target: Mucin 1 (MUC1) on MCF-7 cells; aptamer designed against the VNTR region (UniProt P15941); assay: whole-cell fluorescence binding; conditions: DBCO or NH2 at 5' (which version was used as free aptamer is not stated); 5x10^4 DAPI-stained MCF-7 cells added to 500 uL A-f-M13-MB (resuspended in PBS), 30 min, 37 C; one-site fit over aptamer concentration

Sequence of UniProt P15941 (P15941 whole entry): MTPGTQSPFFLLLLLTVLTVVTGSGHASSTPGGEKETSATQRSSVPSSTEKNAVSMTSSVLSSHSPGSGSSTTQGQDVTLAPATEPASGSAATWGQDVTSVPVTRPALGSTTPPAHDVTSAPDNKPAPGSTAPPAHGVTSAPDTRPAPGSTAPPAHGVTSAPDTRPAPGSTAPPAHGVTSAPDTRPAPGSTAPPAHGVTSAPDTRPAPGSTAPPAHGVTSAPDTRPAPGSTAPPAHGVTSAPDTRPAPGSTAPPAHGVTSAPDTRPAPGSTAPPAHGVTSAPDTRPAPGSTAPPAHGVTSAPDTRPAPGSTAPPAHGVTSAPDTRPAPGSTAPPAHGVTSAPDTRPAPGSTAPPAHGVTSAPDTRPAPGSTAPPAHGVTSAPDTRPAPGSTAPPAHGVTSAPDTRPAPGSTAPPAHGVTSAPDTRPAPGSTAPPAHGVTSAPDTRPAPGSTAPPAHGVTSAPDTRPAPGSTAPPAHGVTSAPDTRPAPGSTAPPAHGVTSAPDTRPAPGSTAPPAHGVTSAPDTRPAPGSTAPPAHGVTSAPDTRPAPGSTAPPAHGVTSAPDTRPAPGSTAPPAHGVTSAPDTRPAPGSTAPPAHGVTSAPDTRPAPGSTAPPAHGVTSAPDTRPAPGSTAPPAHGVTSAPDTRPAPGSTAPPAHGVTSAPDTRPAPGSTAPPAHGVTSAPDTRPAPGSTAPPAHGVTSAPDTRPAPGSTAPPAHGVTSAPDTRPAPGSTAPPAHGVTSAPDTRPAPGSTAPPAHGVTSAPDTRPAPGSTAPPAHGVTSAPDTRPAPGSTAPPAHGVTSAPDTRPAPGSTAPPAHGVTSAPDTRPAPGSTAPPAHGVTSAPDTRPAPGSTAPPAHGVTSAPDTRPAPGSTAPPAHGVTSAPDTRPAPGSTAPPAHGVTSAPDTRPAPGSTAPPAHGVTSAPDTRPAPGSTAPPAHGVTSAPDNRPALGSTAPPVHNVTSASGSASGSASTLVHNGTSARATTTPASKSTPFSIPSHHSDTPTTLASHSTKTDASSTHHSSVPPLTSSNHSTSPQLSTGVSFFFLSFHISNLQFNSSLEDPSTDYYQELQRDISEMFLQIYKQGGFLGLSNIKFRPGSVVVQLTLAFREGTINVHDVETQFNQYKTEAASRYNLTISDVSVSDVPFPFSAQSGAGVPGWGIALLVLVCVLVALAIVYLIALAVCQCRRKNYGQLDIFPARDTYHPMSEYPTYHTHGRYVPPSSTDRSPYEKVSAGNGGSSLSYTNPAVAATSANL

TTTTTGCAGTTGATCCTTTGGATACCCTGG [NH2-Apt (S2.2) on magnetic beads]
Kd ([1]; A-MB, 5' NH2, coupled to carboxyl magnetic beads): 21 nM

TTTTTGCAGTTGATCCTTTGGATACCCTGG [S2.2 aptamer, free (FAM-labelled)]
Kd [2]: 260 nM

TTTTTGCAGTTGATCCTTTGGATACCCTGG [DBCO-Apt (S2.2) clicked on M13 pVIII]
Kd ([1]; A-f-M13-MB, flexible phage, 5' DBCO, coupled to N3-PEG on M13 phage sidewall): 0.00109 nM | Kd ([1]; A-r-M13-MB, PFA-treated rigid phage, 5' DBCO, coupled to N3-PEG on M13 phage sidewall): 0.0248 nM
